The values below come from US20100028340A1.

Assay [1] has as its target T1, recombinant purified human RGM A (R&D Systems Cat# 2459-RM) (human) (UniProt Q96B86).
T1 sequence: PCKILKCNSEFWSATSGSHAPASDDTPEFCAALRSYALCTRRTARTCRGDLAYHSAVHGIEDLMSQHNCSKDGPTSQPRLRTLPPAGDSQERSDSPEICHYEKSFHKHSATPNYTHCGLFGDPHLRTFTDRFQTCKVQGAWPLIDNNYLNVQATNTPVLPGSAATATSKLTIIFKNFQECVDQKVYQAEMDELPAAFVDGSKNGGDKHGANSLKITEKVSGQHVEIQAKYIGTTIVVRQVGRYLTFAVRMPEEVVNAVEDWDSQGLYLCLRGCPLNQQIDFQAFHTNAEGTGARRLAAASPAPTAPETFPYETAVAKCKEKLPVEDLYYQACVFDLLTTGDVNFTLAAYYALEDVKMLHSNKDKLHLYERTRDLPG
The assay is described as follows: competition ELISA on coated hRGMA; competitor biotinylated chimeric 5F9. For orientation: In an ELISA, binding on a coated surface is turned into a signal by an enzyme label.

Assay [2] has as its target T1, recombinant purified human RGM A (R&D Systems Cat# 2459-RM) (human). Put plainly: SPR (Biacore 3000), antibody captured by anti-human IgG Fc, hRGMA in solution, 25 °C.

B1: h5F9.21 (antibody, human IgG1, V domains shown)
VH: EVQLVESGGGVVQPGRSLRLSCAASGFTFSNYGMNWIRQAPGKGLEWIGMIYYDSSEKHYADSVKGRFTISRDNSKNTLYLQMNSLRAEDTAVYYCAKGTTPDYWGQGTMVTVSS
VL: DVVLTQSPLSLPVTLGQPASISCRSSQSLEYSDGYTFLEWFLQKPGQSPQLLIYEVSNRFSGVPDRFSGSGSGTDFTLKISRVEAEDVGVYYCFQATHDPLTFGQGTKLEIKR
As to B1, in assay [1], the IC50 (as a rule, the point on the concentration scale where inhibition reaches its midpoint) turned out to be 0.6 µg/mL. In assay [2], the Kd (as a rule, the free concentration of one partner at which half of the binding sites on the other are occupied at equilibrium, for simple one-to-one binding) stood at 7.59 nM; the koff (usually the rate constant with which the complex falls apart) was 0.00269 s⁻¹; the on-rate (kon) (as a rule, the second-order rate constant of association) turned out to be 355000 M⁻¹ s⁻¹.

B2: h5F9.25 (antibody, human IgG1, V domains shown)
VH: EVQLVESGGGLVQPGGSLRLSCAASGFTFSNYGMNWIRQAPGKGLEWIGMIYYDSSEKHYADSVKGRFTISRDNSKNTLYLQMNSLRAEDTAVYYCAKGTTPDYWGQGTMVTVSS
VL: DVVLTQSPLSLPVTLGQPASISCRSSQSLEYSDGYTFLEWFLQKPGQSPQLLIYEVSNRFSGVPDRFSGSGSGTDFTLKISRVEAEDVGVYYCFQATHDPLTFGQGTKLEIKR
As for B2, the IC50 in assay [1] turned out to be 0.66 µg/mL. Moreover, in assay [2], the Kd stood at 5.78 nM, the koff was determined as 0.00329 s⁻¹ and the kon amounted to 570000 M⁻¹ s⁻¹.

B3: h5F9.24 (antibody, human IgG1, V domains shown)
VH: EVQLVESGGGLVQPGGSLRLSCAASGFTFSNYGMNWIRQAPGKGLEWIGMIYYDSSEKHYADSVKGRFTISRDNSKNTLYLQMNSLRAEDTAVYYCAKGTTPDYWGQGTMVTVSS
VL: DVVLTQSPLSLPVTLGQPASISCRSSQSLEYSDGYTFLEWFQQRPGQSPRRLIYEVSNRFSGVPDRFSGSGSGTDFTLKISRVEAEDVGVYYCFQATHDPLTFGQGTKLEIKR
Take B3: in assay [1], the IC50 amounted to 1.32 µg/mL.

B4: chimeric 5F9 (antibody, V domains shown)
VH: EVQLVESGGGLVQPGSSLKLSCVASGFTFSNYGMNWIRQAPKKGLEWIGMIYYDSSEKHYADSVKGRFTISRDNSKNTLYLEMNSLRSEDTAIYYCAKGTTPDYWGQGVMVTVSS
VL: DVVLTQTPVSLSVTLGDQASMSCRSSQSLEYSDGYTFLEWFLQKPGQSPQLLIYEVSNRFSGVPDRFIGSGSGTDFTLKISRVEPEDLGVYYCFQATHDPLTFGSGTKLEIKR
Take B4: in assay [2], the Kd was 3.09 nM, the koff was 0.00236 s⁻¹ and the kon was determined as 765000 M⁻¹ s⁻¹.

B5: h5F9.23 (antibody, human IgG1, V domains shown)
VH: EVQLVESGGGLVQPGGSLRLSCAASGFTFSNYGMNWIRQAPGKGLEWIGMIYYDSSEKHYADSVKGRFTISRDNSKNTLYLQMNSLRAEDTAVYYCAKGTTPDYWGQGTMVTVSS
VL: DVVLTQSPLSLPVTLGQPASISCRSSQSLEYSDGYTFLEWFQQRPGQSPRLLIYEVSNRFSGVPDRFSGSGSGTDFTLKISRVEAEDVGVYYCFQATHDPLTFGQGTKLEIKR
Take B5: the IC50 in assay [1] came to 0.55 µg/mL. Also, in assay [2], the Kd was found to be 4.37 nM, the koff came out at 0.00221 s⁻¹ and the kon was determined as 507000 M⁻¹ s⁻¹.
